Results taken from patent publication US20150044209A1.
One block for each substance: values may come before it.

Columns and labels:
human insulin (human) [1] = biological target: human insulin (human) (UniProt P01308); assay: SPR (Biacore 3000), multi-cycle, insulin titrated over amine-coupled Trap, steady-state affinity model, n=4; insulin titrated over immobilized Trap B; steady-state affinity model; n = 4
human IGF-2 (human) = human IGF-2 (human) (UniProt P01344); assay: SPR, multi-cycle, Trap flowed over amine-coupled ligand, 1:1 kinetic model, n=4
mouse IGF-1 (mouse) = mouse IGF-1 (mouse) (UniProt P05017); assay: as above
human insulin (human) [2] = biological target: human insulin (human) (UniProt P01308); assay: SPR (Biacore 3000), multi-cycle, insulin titrated over amine-coupled Trap, steady-state affinity model, n=4
[3] = biological target: ligand-immobilized surfaces (hIGF-I, mIGF-I and hIGF-II); assay: SPR, multi-cycle, Trap flowed over ligand-immobilized surfaces; ligand not named

human insulin (human), sequence (P01308 25-54 limits assumed, chain 1 of 2): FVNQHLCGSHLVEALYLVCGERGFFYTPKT
human insulin (human), sequence (P01308 90-110 limits assumed, chain 2 of 2): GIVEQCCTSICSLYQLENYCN
mouse IGF-1 (mouse), sequence (P05017 49-118 limits assumed): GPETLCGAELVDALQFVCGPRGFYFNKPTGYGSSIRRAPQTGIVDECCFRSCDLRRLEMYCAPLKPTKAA
human IGF-2 (human), sequence (P01344 25-91 limits assumed): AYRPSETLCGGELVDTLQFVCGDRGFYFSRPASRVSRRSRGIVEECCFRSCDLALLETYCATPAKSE

- Kd (human insulin (human) [1]): 10 µM
Substance: Trap B: His-tagged h-sIGF1R purified from 293 cells (from UniProt P08069 31-935) (receptor)

- Kd (human IGF-2 (human)): 0.016 µM
- Kd (mouse IGF-1 (mouse)): 0.01 µM
- Kd (human insulin (human) [2]): 16 µM
Substance: Trap D: h-sIGF1R, purified from CHO cells by calcium hydroxyapatite (CHT) column followed by gel filtration (GF) (from UniProt P08069 31-935) (receptor)

- koff [3]: 0.00043 s⁻¹
Substance: Trap F: h-sIGF1R-Fc, purified from CHO cells using protein A, pH 4.0 elution (Fc fusion)

- koff [3]: 0.00015 s⁻¹
Substance: Trap G: h-sIGF1R-Fc, purified from CHO cells using protein A, pH 3.5 elution (Fc fusion)
